± gives the standard deviation of the averaged measurements.
What follows are sequences tested on Saccharomyces cerevisiae (assay: protein stability index of tFT-peptide fusion (C-terminal peptide) (PSI (0-1 scale)); higher = more stable (slower turnover)). Conditions: genetic background: wild type; temperature: 30 C.
Protocol: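 Multiplexed protein stability (MPS) profiling in S. cerevisiae. Random 12-aa peptides (tFT-X12 library) are fused to the C-terminus of a sfGFP-mCherry tandem fluorescent timer, after mCherry and a GGGS linker. Cells are FACS-sorted into 8 mCherry/sfGFP bins and deep-sequenced. The protein stability index (PSI) is the read-weighted bin average, scaled from 0 (unstable) to 1 (stable). Only peptides with >10 reads are reported; cells were grown at 30 °C in SC-His with glucose.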
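Also: PSI is a weighted mean of sequencing reads over stability bins, variants kept only with over 10 reads, mCherry proximal and sfGFP distal, peptide attached via GGGS linker.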

Sequence | protein stability index
KIINKKKKRKKN | 0.665 ± 0.023
KIKDKKNKQKKH | 0.709 ± 0.034
KIKKLKKRNKSY | 0.612 ± 0.023
KIKNKYKEKKKK | 0.67 ± 0.0079
KIKQKEITEKNR | 0.638 ± 0.038
KIRFGRCLRSSF | 0.746 ± 0.033
KIRNLELNVQTN | 0.688 ± 0.075
KITKKNRSWKTS | 0.623 ± 0.019
KIYKKSKKKKEI | 0.688 ± 0.061
KKDFTTKSKEYR | 0.7125 ± 0.0026
KKDRRGGGPGGG | 0.691 ± 0.03
KKEEIIIGGKKI | 0.663 ± 0.043
KKEERTQKNEKK | 0.654 ± 0.011
KKEKKKQKRNNN | 0.782 ± 0.013
KKEKNQEKRKKE | 0.657 ± 0.021
KKEKSQTKKQNI | 0.684 ± 0.12
KKEKVKKKKGNN | 0.723 ± 0.013
KKEKYIQIRTID | 0.627 ± 0.033
KKEQKFKEDSDR | 0.677 ± 0.019
KKEQKSKTEMRK | 0.7124 ± 0.0037
KKGKEKEVKKKK | 0.646 ± 0.074
KKGKKRNKTAKQ | 0.628 ± 0.062
KKGNKYNNKRKK | 0.69 ± 0.04
KKGRTVEKKKGD | 0.694 ± 0.0039
KKGSSKKKKPVE | 0.6581 ± 0.0062

Sequence | protein stability index
KKHTLNENKMKE | 0.652 ± 0.011
KKICPDFGLLLV | 0.591 ± 0.004
KKIEHRVLNELK | 0.6288 ± 0.00069
KKIKKHEKKKNK | 0.721 ± 0.053
KKIRKKLKKMKM | 0.644 ± 0.053
KKITTDNKKNKI | 0.651 ± 0.067
KKKEKKRKEEKN | 0.824 ± 0.052
KKKIKNKTNEEK | 0.647 ± 0.038
KKKKEEKNRQES | 0.7 ± 0.077
KKKKIKKKTKKE | 0.667 ± 0.027
KKKKKEQKTNQT | 0.697 ± 0.022
KKKKKHTQYKRK | 0.6997 ± 0.0026
KKKKKKKIRKKI | 0.682 ± 0.029
KKKKKKKKDNKL | 0.781 ± 0.099
KKKKKKKKHEQK | 0.678 ± 0.09
KKKKKKKKKKRK | 0.685 ± 0.01
KKKKKKKKKNKK | 0.679 ± 0.048
KKKKKKKKTKKR | 0.637 ± 0.044
KKKKKKKTQTNK | 0.692 ± 0.015
KKKKKKNKKKTQ | 0.734 ± 0.04
KKKKKKQKKKIQ | 0.741 ± 0.05
KKKKKNKKKTIK | 0.6886 ± 0.0046
KKKKKNKKNKKY | 0.709 ± 0.038
KKKKKNSRKKQQ | 0.7108 ± 0.0018
KKKKKNTKVYNE | 0.703 ± 0.13

Sequence | protein stability index
KKKKKQIKKQKK | 0.586 ± 0.02
KKKKKQKKKKRK | 0.682 ± 0.013
KKKKKVKITGKK | 0.766 ± 0.018
KKKKNKQKQIET | 0.759 ± 0.07
KKKKQKKNKKKK | 0.6602 ± 0.0052
KKKKSKIKKKRE | 0.665 ± 0.042
KKKKTKKKEQKE | 0.693 ± 0.012
KKKPKKQRKNKR | 0.684 ± 0.013
KKKQKTIYRQKE | 0.64 ± 0.089
KKKRKRKRSRRK | 0.639 ± 0.03
KKKRTKKEREKK | 0.6612 ± 0.0032
KKNKKNKKKKKN | 0.63 ± 0.082
KKPVALVESRRV | 0.662 ± 0.055
KKQKKKTKANKT | 0.673 ± 0.041
KKREEKKEKRKR | 0.643 ± 0.054
KKRGNYKTTESN | 0.687 ± 0.0076
KKRILNRKKEER | 0.705 ± 0.052
KKRMKKKTKNKN | 0.652 ± 0.019
KKRNMRINSKKQ | 0.7 ± 0.022
KKRRNRIKKSAK | 0.689 ± 0.14
KKRVSKETDKVK | 0.693 ± 0.027
KKSKDKRNPKKK | 0.692 ± 0.028
KKTKEQEGEKTE | 0.679 ± 0.026
KKTKKKQQGKIQ | 0.702 ± 0.017
KKTKNKKKQNGK | 0.6863 ± 0.0012

Sequence | protein stability index
KKTPKKKHKKKR | 0.679 ± 0.12
KKYIEKKFNIQK | 0.664 ± 0.03
KKYKKKKKRARY | 0.698 ± 0.019
KLAHVKIKKTGK | 0.652 ± 0.018
KLKIINENKLQN | 0.618 ± 0.087
KMGGKRTKKIGQ | 0.694 ± 0.086
KNADHPRKDEQP | 0.661 ± 0.095
KNEESTKREGHF | 0.669 ± 0.063
KNIKENIGDKNK | 0.646 ± 0.06
KNKEISQIYIKN | 0.662 ± 0.027
KNKIRLLNKTSK | 0.6717 ± 0.0014
KNKKKNTIKKNK | 0.684 ± 0.018
KNKREKKKENTK | 0.682 ± 0.0078
KNKVTRNEKGIT | 0.639 ± 0.047
KNNKKQRNRTGE | 0.669 ± 0.017
KNNKSERIEKEQ | 0.701 ± 0.08
KNNNREKLRQSM | 0.623 ± 0.056
KNTKRQIKKNKK | 0.662 ± 0.17
KNWRMKKDHKQA | 0.657 ± 0.024
KQERCCEEREEK | 0.729 ± 0.024
KQHTEQIDRRTG | 0.6635 ± 0.0036
KQKKAKKQKKKK | 0.69 ± 0.099
KQKKKIKIQNKT | 0.689 ± 0.12
KQKKNEENTKKT | 0.735 ± 0.064
KQKKNKKKKQNR | 0.699 ± 0.036

Sequence | protein stability index
KQLEKYKDIRRK | 0.665 ± 0.061
KQNKIIKKRKKK | 0.659 ± 0.067
KQRGTRGNKANE | 0.6231 ± 0.0058
KQRKIKKNIINH | 0.707 ± 0.015
KQRKSESGSNTV | 0.686 ± 0.057
KREARGERGKGE | 0.644 ± 0.04
KRETKSKGQAQA | 0.602 ± 0.042
KRGIHKLVNEVG | 0.683 ± 0.011
KRGRRKLQRGRQ | 0.679 ± 0.028
KRGVVGFGKGGG | 0.6654 ± 0.0027
KRIDLDCSVAAD | 0.643 ± 0.022
KRKAQEVNSKKK | 0.703 ± 0.011
KRKENKKNKEKK | 0.669 ± 0.042
KRKREKKLKKYK | 0.634 ± 0.037
KRLKKKRNRAKA | 0.683 ± 0.031
KRLTSKVKTITG | 0.694 ± 0.031
KRNKDYGSFEVT | 0.629 ± 0.029
KRRKKKKQSGGK | 0.645 ± 0.023
KRSIEIRTKIKL | 0.7 ± 0.022
KRTRRADVGKED | 0.65 ± 0.064
KRVGLRLCGRLT | 0.704 ± 0.04
KRVSGSEQDIAT | 0.6561 ± 0.0026
KRYKSYEDKNVM | 0.696 ± 0.033
KSEIRDGRFPSC | 0.589 ± 0.011
KSEMAIIEKKEN | 0.667 ± 0.055

Sequence | protein stability index
KSGVWLWVGGGG | 0.714 ± 0.033
KSKDKGEGKELK | 0.694 ± 0.088
KSKTRTKLYSRN | 0.6421 ± 0.0017
KSLSEKSKEKGS | 0.668 ± 0.034
KSLYLVDDRVGR | 0.764 ± 0.078
KSNTGGGERNKA | 0.668 ± 0.018
KSPYNTPLSLVL | 0.672 ± 0.024
KSRVCSPSNEPS | 0.7443 ± 0.0074
KSYTGSRGQRVL | 0.701 ± 0.053
KTFRTYRTYFRK | 0.682 ± 0.023
KTKEKTKKEIQM | 0.629 ± 0.0042
KTKKKKKKKINK | 0.711 ± 0.11
KTKNTQRKTEEN | 0.653 ± 0.047
KTKTKKKERNRK | 0.622 ± 0.088
KTLYIAKTKSRA | 0.644 ± 0.038
KTNLGNTKVKKK | 0.613 ± 0.025
KTPAAVPWTRER | 0.693 ± 0.013
KTPHSTARNFNR | 0.736 ± 0.092
KTRNDQPQKFHN | 0.688 ± 0.034
KVCIRFSCKIHM | 0.6396 ± 0.0021
KVIRVEALEILV | 0.544 ± 0.023
KVKIKREKKKRK | 0.672 ± 0.017
KVQGGGKYPTYS | 0.699 ± 0.058
KVSATIISFENI | 0.709 ± 0.1
KVVGRLGVERVR | 0.753 ± 0.0052

Sequence | protein stability index
KWREQPRNDIVL | 0.604 ± 0.047
KYDSPFFNWCSQ | 0.579 ± 0.031
KYKEEINEKIFN | 0.646 ± 0.022
KYKELEAAALQK | 0.732 ± 0.11
KYRHDFNEVSKT | 0.665 ± 0.036
LAEGFSLIRSHR | 0.685 ± 0.019
LAFFEFVVDSLG | 0.677 ± 0.018
LAGGMTSRTVSI | 0.716 ± 0.0073
LAGVTLPRPSSA | 0.6633 ± 0.0046
LAIIKLRGDLSY | 0.6646 ± 0.0019
LAKRSKCCNRSR | 0.686 ± 0.018
LALGICRLSSAG | 0.7599 ± 0.005
LALSRVALFSHS | 0.679 ± 0.042
LAPPPARLPLSP | 0.687 ± 0.009
LARFRAEWGGVV | 0.691 ± 0.019
LARWFILRDLIY | 0.56 ± 0.0089
LASARPLILSWP | 0.628 ± 0.019
LASEPLPPYPPS | 0.704 ± 0.052
LASPPFPRPPPP | 0.57 ± 0.12
LASSLTALRYPP | 0.742 ± 0.064
LASYSSCYIRDF | 0.751 ± 0.017
LATPPPPPLSPP | 0.789 ± 0.19
LAVKGIVNDSTI | 0.683 ± 0.0084
LCGVRGESGLEG | 0.685 ± 0.031
LCLFRSCVHSSA | 0.616 ± 0.049

Sequence | protein stability index
LCLRRLSCVGFG | 0.568 ± 0.022
LCLWVWGSVVGG | 0.6123 ± 0.0015
LCPNFFFFSSSP | 0.75 ± 0.017
LCPRIAIVHPPS | 0.606 ± 0.027
LCQCAFLSFSCF | 0.61642 ± 1.1e-05
LCRPNELPDGLP | 0.664 ± 0.039
LCSLWWGLVSGW | 0.652 ± 0.029
LCSPCSSLFHSQ | 0.656 ± 0.032
LCVGAGCAFEEG | 0.675 ± 0.025
LCVWFGGLGLVG | 0.69 ± 0.019
LDAVRCRDKAVV | 0.6537 ± 0.0036
LDGAHLLLNTIP | 0.687 ± 0.039
LDRTIPGPWPLR | 0.731 ± 0.042
LDVASTPPLSTL | 0.704 ± 0.023
LDVCDGVSGVRS | 0.647 ± 0.035
LDYDTTNSMWLS | 0.586 ± 0.09
LECLSRGWSIYC | 0.541 ± 0.05
LEDGDRVYQVTI | 0.655 ± 0.012
LEEGLYQQEDIR | 0.722 ± 0.076
LEFEIYHSECTV | 0.685 ± 0.088
LEFMTENSCACV | 0.652 ± 0.033

From the supplement of paper PMC10724198
